These results are taken from paper PMC5241803, “Structural basis for the recognition and degradation of host TRIM proteins by Salmonella effector SopA” (Nature Communications, 2017).

By Kd is commonly meant the constant that tells how readily two partners part at equilibrium. Low readings indicate a tighter complex, high ones a looser complex.

The target of one experiment is T1, GST-SopA (S. Typhimurium, UniProt Q8ZNR3 1-782).
T1 construct: also called recombinant SopA; source: E. coli BL21 (DE3), purified on glutathione sepharose 4B beads; not shown: GST, N-terminal, kept
T1 sequence: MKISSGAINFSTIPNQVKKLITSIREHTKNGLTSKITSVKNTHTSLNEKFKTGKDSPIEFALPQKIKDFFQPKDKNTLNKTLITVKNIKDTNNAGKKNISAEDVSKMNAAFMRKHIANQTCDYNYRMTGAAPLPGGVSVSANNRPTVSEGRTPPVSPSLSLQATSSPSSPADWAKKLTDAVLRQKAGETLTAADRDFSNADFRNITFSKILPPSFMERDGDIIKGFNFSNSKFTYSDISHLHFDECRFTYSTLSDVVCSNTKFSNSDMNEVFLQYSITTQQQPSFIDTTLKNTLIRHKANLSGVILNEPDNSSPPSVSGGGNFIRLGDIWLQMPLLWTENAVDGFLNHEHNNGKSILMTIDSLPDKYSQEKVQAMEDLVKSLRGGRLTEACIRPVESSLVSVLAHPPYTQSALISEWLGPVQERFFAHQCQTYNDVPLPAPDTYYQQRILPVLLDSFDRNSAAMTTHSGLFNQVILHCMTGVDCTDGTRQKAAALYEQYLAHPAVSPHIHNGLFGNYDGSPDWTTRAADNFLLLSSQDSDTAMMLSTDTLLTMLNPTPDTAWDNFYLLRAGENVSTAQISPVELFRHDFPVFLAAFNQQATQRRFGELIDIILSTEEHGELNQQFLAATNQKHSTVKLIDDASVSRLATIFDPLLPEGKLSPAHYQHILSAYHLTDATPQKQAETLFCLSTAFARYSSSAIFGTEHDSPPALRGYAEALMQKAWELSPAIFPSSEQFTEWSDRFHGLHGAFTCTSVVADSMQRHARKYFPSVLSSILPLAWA
Description: pull-down. Conditions: both partners purified.

A further experiment deals with T2, SopA (163–782) (S. Typhimurium, UniProt Q8ZNR3 163-782).
T2 construct: also called SopA WT; source: bacterially expressed, purified (Talon beads, size exclusion)
T2 sequence: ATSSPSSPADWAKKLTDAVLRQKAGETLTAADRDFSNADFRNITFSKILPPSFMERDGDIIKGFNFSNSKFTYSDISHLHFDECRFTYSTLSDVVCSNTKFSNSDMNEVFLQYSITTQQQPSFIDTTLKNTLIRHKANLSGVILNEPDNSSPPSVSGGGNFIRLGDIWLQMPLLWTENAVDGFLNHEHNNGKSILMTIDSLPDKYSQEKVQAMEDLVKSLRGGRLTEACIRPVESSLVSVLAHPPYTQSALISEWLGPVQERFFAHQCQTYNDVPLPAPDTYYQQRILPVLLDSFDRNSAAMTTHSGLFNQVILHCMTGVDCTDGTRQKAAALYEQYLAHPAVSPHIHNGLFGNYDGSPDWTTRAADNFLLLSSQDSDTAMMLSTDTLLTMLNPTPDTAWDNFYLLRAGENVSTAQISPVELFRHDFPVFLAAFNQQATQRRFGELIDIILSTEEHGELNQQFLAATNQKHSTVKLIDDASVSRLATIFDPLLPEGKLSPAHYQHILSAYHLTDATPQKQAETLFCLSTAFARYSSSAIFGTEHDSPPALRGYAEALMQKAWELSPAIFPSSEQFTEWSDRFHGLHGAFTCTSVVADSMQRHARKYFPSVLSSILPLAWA
The experiment is described as follows: ITC; 1 mM TRIM56 (1–94) injected into 20 μM SopA (163–782) in the cell, 25 °C, 10 mM HEPES, 100 mM NaCl, 1 mM TCEP; VP-ITC. Conditions: both partners purified. For orientation: ITC needs no label: the signal is the heat of the interaction.

B1: MBP-TRIM56 (natural protein, human, UniProt Q9BRZ2 1-755, looked up)
chain: MVSHGSSPSLLEALSSDFLACKICLEQLRAPKTLPCLHTYCQDCLAQLADGGRVRCPECRETVPVPPEGVASFKTNFFVNGLLDLVKARACGDLRAGKPACALCPLVGGTSTGGPATARCLDCADDLCQACADGHRCTRQTHTHRVVDLVGYRAGWYDEEARERQAAQCPQHPGEALRFLCQPCSQLLCRECRLDPHLDHPCLPLAEAVRARRPGLEGLLAGVDNNLVELEAARRVEKEALARLREQAARVGTQVEEAAEGVLRALLAQKQEVLGQLRAHVEAAEEAARERLAELEGREQVARAAAAFARRVLSLGREAEILSLEGAIAQRLRQLQGCPWAPGPAPCLLPQLELHPGLLDKNCHLLRLSFEEQQPQKDGGKDGAGTQGGEESQSRREDEPKTERQGGVQPQAGDGAQTPKEEKAQTTREEGAQTLEEDRAQTPHEDGGPQPHRGGRPNKKKKFKGRLKSISREPSPALGPNLDGSGLLPRPIFYCSFPTRMPGDKRSPRITGLCPFGPREILVADEQNRALKRFSLNGDYKGTVPVPEGCSPCSVAALQSAVAFSASARLYLINPNGEVQWRRALSLSQASHAVAALPSGDRVAVSVAGHVEVYNMEGSLATRFIPGGKASRGLRALVFLTTSPQGHFVGSDWQQNSVVICDGLGQVVGEYKGPGLHGCQPGSVSVDKKGYIFLTLREVNKVVILDPKGSLLGDFLTAYHGLEKPRVTTMVDGRYLVVSLSNGTIHIFRVRSPDS
notes: TRIM56, human, full length, in pMAL-C2X; also called recombinant TRIM56; not shown: MBP, N-terminal, kept
On to B1, for which the binding result in the experiment with GST-SopA is “binds”.

B2: TRIM56 (1–94) (domain or fragment, human, UniProt Q9BRZ2 1-94, looked up)
chain: MVSHGSSPSLLEALSSDFLACKICLEQLRAPKTLPCLHTYCQDCLAQLADGGRVRCPECRETVPVPPEGVASFKTNFFVNGLLDLVKARACGDL
notes: TRIM56, human, RING domain, residues 1-94; in the crystal this stretch stood N-terminal on one chain with SopA (163–425); also called TRIM56 RING domain; TRIM56 RING
Take B2: the dissociation constant Kd in the experiment with SopA (163–782) is roughly 9 µM.
